Measured values published in publication PMC11267003, “Interdomain communication in a homodimeric ABC transporter” (The Journal of Biological Chemistry, 2024).
Where a chain is given by its changes, count along the chain named. Names may count otherwise. No end group written: not given here. *: point of attachment. Fluorescein(5-NHCOCH2) = O=C(C*)Nc1ccc2c(c1)C(=O)OC21c2ccc(O)cc2Oc2cc(O)ccc21

T1: human coreTAPL D292A, C-terminal mVenus-His10 fusion (human) (UniProt Q9NP78)
T1 sequence: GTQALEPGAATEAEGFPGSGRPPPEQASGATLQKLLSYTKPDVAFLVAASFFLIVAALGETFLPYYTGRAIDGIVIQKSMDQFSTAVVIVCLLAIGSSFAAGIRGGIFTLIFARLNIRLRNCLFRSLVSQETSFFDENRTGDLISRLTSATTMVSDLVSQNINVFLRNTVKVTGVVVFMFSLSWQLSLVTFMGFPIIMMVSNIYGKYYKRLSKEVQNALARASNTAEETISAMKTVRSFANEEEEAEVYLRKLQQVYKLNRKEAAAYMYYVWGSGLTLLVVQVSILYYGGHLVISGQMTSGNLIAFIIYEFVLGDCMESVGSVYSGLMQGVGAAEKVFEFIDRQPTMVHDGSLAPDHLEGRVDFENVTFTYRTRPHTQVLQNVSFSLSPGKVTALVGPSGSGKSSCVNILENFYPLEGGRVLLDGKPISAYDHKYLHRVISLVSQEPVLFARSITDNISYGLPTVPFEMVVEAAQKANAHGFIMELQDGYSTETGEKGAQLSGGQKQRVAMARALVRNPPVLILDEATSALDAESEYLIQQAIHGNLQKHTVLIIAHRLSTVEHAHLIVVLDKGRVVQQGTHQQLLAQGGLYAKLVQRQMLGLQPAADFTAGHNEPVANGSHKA

T2: human coreTAPL R288A, C-terminal mVenus-His10 fusion (human) (UniProt Q9NP78)
T2 sequence: T1 sequence with R146A, A150D

T3: human coreTAPL wildtype (transporter associated with antigen processing-like, ABCB9), C-terminal mVenus-His10 fusion (human) (UniProt Q9NP78)
T3 sequence: T1 sequence with A150D

B1: human coreTAPL D278A, C-terminal mVenus-His10 fusion (complex, UniProt Q9NP78 143-766, looked up)
chain: T1 sequence with D136A, A150D
notes: human TAPL (ABCB9), coreTAPL, amino acids 143-766; Mutant of the mVenus fusion construct; TEV site between coreTAPL and mVenus; also called D278A^mV; source: Sf21 insect cells (baculovirus), purified by Ni-NTA after solubilisation in GDN or DDM; reconstituted into liposomes for transport and hydrolysis assays; not shown: mVenus, C-terminal, kept
B2: human coreTAPL D292A, C-terminal mVenus-His10 fusion (complex, UniProt Q9NP78 143-766, looked up)
chain: T1 sequence
notes: human TAPL (ABCB9), coreTAPL, amino acids 143-766; Mutant of the mVenus fusion construct; TEV site between coreTAPL and mVenus; also called D292A^mV; source: Sf21 insect cells (baculovirus), purified by Ni-NTA after solubilisation in GDN or DDM; reconstituted into liposomes for transport and hydrolysis assays; not shown: mVenus, C-terminal, kept
B3: human coreTAPL wildtype (transporter associated with antigen processing-like, ABCB9), C-terminal mVenus-His10 fusion (complex, UniProt Q9NP78 143-766, looked up)
chain: T1 sequence with A150D
notes: human TAPL (ABCB9), coreTAPL without the N-terminal TMD0, amino acids 143-766; A tobacco etch virus cleavage site lies between coreTAPL and mVenus; no cleavage is reported for the mVenus constructs, so the His10 behind mVenus was probably still there; also called wt; wt TAPL; source: Sf21 insect cells (baculovirus), purified by Ni-NTA after solubilisation in GDN or DDM; reconstituted into …
B4: human coreTAPL R288A, C-terminal mVenus-His10 fusion (complex, UniProt Q9NP78 143-766, looked up)
chain: T1 sequence with R146A, A150D
notes: human TAPL (ABCB9), coreTAPL, amino acids 143-766; Mutant of the mVenus fusion construct; TEV site between coreTAPL and mVenus; also called R288A^mV; source: Sf21 insect cells (baculovirus), purified by Ni-NTA after solubilisation in GDN or DDM; reconstituted into liposomes for transport and hydrolysis assays; not shown: mVenus, C-terminal, kept
B5: peptide C4^Atto-655 (RRYC^Atto-655KSTEL) (peptide)
peptide: RRYC(Atto‑655)KSTEL
notes: synthetic 9-mer peptide C4; source: synthetic peptide (Fmoc solid-phase synthesis), labelled, purified by reversed-phase HPLC

Key:
[1] = biological target: human coreTAPL (TAPL, ABCB9) (Homo sapiens, UniProt Q9NP78, D278A); assay: biochemical
[2] = biological target: human coreTAPL (TAPL, ABCB9) (Homo sapiens, UniProt Q9NP78, R288A); assay: biochemical
[3] = biological target: human coreTAPL (TAPL, ABCB9) (Homo sapiens, UniProt Q9NP78, D292A); assay: biochemical
[4] = biological target: human coreTAPL (TAPL, ABCB9) (Homo sapiens, UniProt Q9NP78); assay: biochemical
[5] = biological target: T1, human coreTAPL D292A, C-terminal mVenus-His10 fusion (human)
[6] = biological target: T2, human coreTAPL R288A, C-terminal mVenus-His10 fusion (human)
[7] = biological target: T3, human coreTAPL wildtype (transporter associated with antigen processing-like, ABCB9), C-terminal mVenus-His10 fusion (human)
[8] = biological target: the molecule itself; assay: SEC; analytical, Superose 6 Increase 3.2/300, 20 mM Hepes, 140 mM NaCl, 100 mM imidazole, 15% glycerol, 0.1% GDN, pH 7.5, 4 °C; absorbance at 280 and 515 nm
[9] = biological target: B3; assay: MST; 5 nM C4^Atto-655 with 5 μM GDN-purified TAPL variant in GDN-containing elution buffer, 22 °C, single concentration; details: both partners purified
[10] = biological target: B1; assay: as above; details: both partners purified
[11] = biological target: B4; assay: as above; details: both partners purified
[12] = biological target: B2; assay: as above; details: both partners purified
[13] = biological target: T2, human coreTAPL R288A, C-terminal mVenus-His10 fusion (human); remark: listed apart in the source

Sequence of human coreTAPL (TAPL, ABCB9) (Homo sapiens, UniProt Q9NP78) (Q9NP78 143-766): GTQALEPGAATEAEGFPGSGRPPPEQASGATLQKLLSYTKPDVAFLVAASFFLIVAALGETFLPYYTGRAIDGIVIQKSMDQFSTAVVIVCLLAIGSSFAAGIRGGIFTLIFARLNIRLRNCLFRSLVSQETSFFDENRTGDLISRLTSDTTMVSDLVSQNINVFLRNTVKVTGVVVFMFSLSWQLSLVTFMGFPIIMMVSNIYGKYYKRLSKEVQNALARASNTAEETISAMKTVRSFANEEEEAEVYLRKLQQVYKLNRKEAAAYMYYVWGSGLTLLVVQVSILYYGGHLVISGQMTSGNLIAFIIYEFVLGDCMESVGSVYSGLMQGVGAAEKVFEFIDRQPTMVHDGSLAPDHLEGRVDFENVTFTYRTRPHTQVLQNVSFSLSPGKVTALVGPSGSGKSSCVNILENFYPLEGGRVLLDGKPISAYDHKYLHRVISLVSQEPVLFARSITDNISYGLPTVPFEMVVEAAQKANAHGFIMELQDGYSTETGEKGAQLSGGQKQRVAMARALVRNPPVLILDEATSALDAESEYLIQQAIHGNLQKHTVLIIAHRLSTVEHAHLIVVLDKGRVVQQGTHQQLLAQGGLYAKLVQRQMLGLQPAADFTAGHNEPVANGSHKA
Sequence of human coreTAPL (TAPL, ABCB9) (Homo sapiens, UniProt Q9NP78, D278A) (Q9NP78 143-766 D278A): as the sequence (Q9NP78 143-766) above, with D136A counted along it
Sequence of human coreTAPL (TAPL, ABCB9) (Homo sapiens, UniProt Q9NP78, R288A) (Q9NP78 143-766 R288A): as the sequence (Q9NP78 143-766) above, with R146A counted along it

Work on `Nc1ncnc2c1ncn2[C@@H]1O[C@H](COP(=O)(O)OP(=O)(O)OP(=O)(O)O)[C@@H](O)[C@H]1O` [ATP] yielded an IC50 [1] of 0.9 ± 0.2 µM, an IC50 [2] of 5.6 ± 1.7 µM and an IC50 [3] of 1.3 ± 0.8 µM. It also gave an IC50 [4] of 1.9 ± 1.3 µM.

With RRYQNSTC(Fluorescein(5-NHCOCH2))L [peptide NST^FL (RRYQNSTC^FLL)] the K (m,peptide) of peptide transport into proteoliposomes (0 to 30 μM NST^FL, 10 min, 37 °C) [5] was 2.5 µM, the K (m,peptide) of peptide transport into proteoliposomes (0 to 30 μM NST^FL, 10 min, 37 °C) [6] was 2.2 µM and the K (m,peptide) of peptide transport into proteoliposomes (0 to 30 μM NST^FL, 10 min, 37 °C) [7] was 4.1 µM.

B1: binds [8].

B2: binds [8].

B3: binds [8].

B4: binds [8].

B5: binds [9]; binds [10]; binds [11]. B5: binds [12].

Work on RRYQKSTEL [peptide R9L (…)] yielded an IC50 of the decrease of ATP hydrolysis in proteoliposomes by R9L (0–300 μM, 0.3 mM ATP, 15 min, 37 °C) [13] of 9.5 µM.
